Experiment: soluble on expression in E. coli; label from the status in PepcDB or PDB records

Sequence	soluble on expression in E. coli
MELQEVLRMNGGEGDTSYAKNSAYNQLVLAKVKPVLEQCVRELLRANLPNINKCIKVADLGCASGPNTLLTVRDIVQSIDKVGQEKKNELERPTIQIFLNDLFPNDFNSVFKLLPSFYRKLEKENGRKIGSCLIGAMPGSFYSRLFPEESMHFLHSCYCLQWLSQVPSGLVTELGIGTNKGSIYSSKASRLPVQKAYLDQFTKDFTTFLRIHSEELFSHGRMLLTCICKGVELDARNAIDLLEMAINDLVVEGHLEEEKLDSFNLPVYIPSAEEVKCIVEEEGSFEILYLETFKVLYDAGFSIDDEHIKAEYVASSVRAVYEPILASHFGEAIIPDIFHRFAKHAAKVLPLGKGFYNNLIISLAKKPEKSDM	soluble
MSLMLEPNPTQIKEERIYAEMGLTDEEFAMVEKILGRLPNYTETGLFSVMWSEHCSYKNSKPVLRKFPTTGERVLQGPGEGAGIVDIGDNQAVVFKMESHNHPSAIEPYQGAATGVGGIIRDVFSMGARPVALLNSLRFGELQSPRVKYLFEEVVAGIAGYGNCIGIPTVGGEVQFDPCYEGNPLVNAMCVGLINHEDIKKGQAHGAGNTVMYVGASTGRDGIHGATFASEELSESSEAKRPAVQVGDPFMEKLLIEACLELIQSDALVGIQDMGAAGLTSSSAEMASKAGMGIEMYLDDVPQRETGMTPYEMMLSESQERMLIVVKKGREQEIVDLFEKYGLAAVTMGKVTEDKMLRLFHKGEMVAEVPADALAEEAPIYHKPSKEAAYFAEFQQMKMETPKVENYKETLFALLQQPTIASKEWVYDQYDYQVRTSTVVTPGSDAAVVRVRGTEKGLAMTTDCNSRYIYLDPEVGGKIAVAEAARNIVCSGGEPLAITDCLNFGNPEKPEIFWQIEKSVDGMSEACRTLQTPVIGGNVSMYNERSGEAVYPTPTVGMVGLVHDLKHVTTQEFKQAGDLVYVIGETKAEFGGSELQKMLHGKIFGQSPSIDLDVELKRQKQVLAAIQAGLVQSAHDVAEGGLAVAISESAIGANGLGATVKLDGEATAALFAESQSRFVITVKRENKEAFEKAVEAIQVGEVTNTNEVTIHNEENEVLLTANVDEMRKAWKGAIPCLLK	not soluble
MGSDKIHHHHHHMAILLMQKPDNKAKQFICKKLGINNLGITKPGGRGLTQPVVKLELKRPLYAKGNNYNIINNDETDRYWKPAGITKIFLDRLTNCVSQEAGNMALAEGYFSLEDRYTLYFDISKIQQEFVDLNAQEFFRQFDNLKTLGMLADIAIPLQLCNGLDASITNFSDGQFQSVYIYSIVELFKDRNCLTLLDEPDSFLHPEWQFEFPKQVLEITDAAAKSNHILMSSHSASTITTANENLINLFELQDDKIVVNKVNKADIIKSLSAGLISFSESEAHLNIHHALKNTTGAVLFTEGITDEMILETAWTKIFPAQKRSFAIQNAFDRIFLRNLFSREELEKNFPDRIMFALFDFDEAYDDWNGLKKESDSETDPYKGLSKQLKCKHHYAMLLPVPDIQALKHQVLNPEGKPWGKGAQSHLPIELLFYKDEFLGQWFQKKATPGGGEIIEFIGDKVSFAKNFVPTLEATCFEPLKLVFEFIQSKC	not soluble
MGSDKIHHHHHHIYWEFTTKNMLVLEFIEGIRIDDLESLNASKHNIKNITEIGTEVFFLQVFRDGFFHGDMHPGNILIDKEGALIPIDFGIMGRLSNKDRQFLALLLTYLLNKNYRKVVEIHDEANMLGKDVSHDHLSQAIRAISTPILNKPIGEVSLAKLLGQILSLSKKFNIEVQPQFTLLQKTMLMAEGTTRQINPNINMWELSRPLIDKWINDTHDPFKVLEEWFHKNKIALLKIPEIINKIDKILS	not soluble
MSHHHHHHSQGGPQDHVEIIPLGGMGEIGKNITVFRFRDEIFVLDGGLAFPEEGMPGVDLLIPRVDYLIEHRHKIKAWVLTHGHEDHIGGLPFLLPMIFGKESPVPIYGARLTLGLLRGKLEEFGLRPGAFNLKEISPDDRIQVGRYFTLDLFRMTHSIPDNSGVVIRTPIGTIVHTGDFKLDPTPIDGKVSHLAKVAQAGAEGVLLLIADATNAERPGYTPSEMEIAKELDRVIGRAPGRVFVTTFASHIHRIQSVIWAAEKYGRKVAMEGRSMLKFSRIALELGYLKVKDRLYTLEEVKDLPDHQVLILATGSQGQPMSVLHRLAFEGHAKMAIKPGDTVILSSSPIPGNEEAVNRVINRLYALGAYVLYPPTYKVHASGHASQEELKLILNLTTPRFFLPWHGEVRHQMNFKWLAESMSRPPEKTLIGENGAVYRLTRETFEKVGEVPHGVLYVDGLGVGDITEEILADRRHMAEEGLVVITALAGEDPVVEVVSRGFVKAGERLLGEVRRMALEALKNGVREKKPLERIRDDIYYPVKKFLKKATGRDPMILPVVIEG	soluble
IEIRSVVYQIEGQPYESRLVYDSSATALQPGLLMAPNWMGVSRGAEDIARAVAAKGYVVLLADLYGQQLRPSNNDEAGAAMTPLKNDRGLLRKRMQAGLDQLLSQADVSLDVSRIATFGFCFGGCCSLELARTGAELKAAISFHGTLDTPNPADASNIKGSVLVLHGASDPLVPKEQLPAFEEEMNAAGVDWQLHSHGGAFHSFTDPHANVPGMMMYDAKVSARAFKSMHDLLKEVFG	not soluble
HSGEDLPMVAPGNVRVNVVNSTLAEVHWDPVPLKSIRGHLQGYRIYYWKTQSSSKRNRRHIEKKILTFQGSKTHGMLPGLEPFSHYTLNVRVVNGKGEGPASPDRVFNTPEG	soluble
MGSDKIHHHHHHMDTMVSNSQTYLKILADLIKIKSVNDHELEVAEYLQDLFQENGIEAKILPLEGQRANLVAEIGEGAPVLAVSGHMDVVDPGNLAAWDNDPFTMTEKDGKLFGRGITDMKAGLAALVIAMIELKKQGLPKKGTIRLLATAGEEVGEEGSAAFYRDHYMEDAAGLLIAEPSTVYGTASEQKGSFDIKFTSKGTSVHSSTPEKGYNALVPLMQLLNEANTYFETIPAGEMGPVRFNIDVLNGGSQINSLPDLATALVNVRTIPEYDNNQVAKQIETFVKSYNANGAQINTDLIMNEFPIATSPSNQLVKIIQSLGKEYAGRDIVVAASPGITDASNLAKDKPHDFPFAVYGPGDGSQHQVNESLPKQMYLDFIEIYQKLFIEFLEK	not soluble
DFGKAMYIDNPRDHAVKHFSKVYQCQSADDVQAVKKKLYDDKTAIIEKVAEQTKSFDVASTQVSGRSLKGSIDVPTLPALPQPETRQGAPKLSVLISSAQEAMLCEYQDIDVYYQLPMGLSGELSAMIELFQANPMLKPWFPAILIGEDYQAARVFLETIQPELLITNNSGVGMITKELGLGWVAGPQMNTVNSYAFKCLQDEFAASGAFVSNELNMKQMRHIKRPKNMRSFYSIYHPNTLLTSRQCLFQQTEGCRKVKVNKGCLKRCDKRTSIINLKDNPYVVQKQKGSHNSIYSEHNVLNLQVLHDLPQLFTDVLIDLRDIQTETKVSASKPELIDAFLALLEDHSEQAIQTLNAMIQPTANAQYLKGL	not soluble
MDVDRLMRDLSVEQLENIQQNLEKEMEGKRESLREMVGRRYRDVLEASSEVRHVCSLADKLASDIANTRVGYQSTHVRTGGREEQKAGEHLYAVNYLVSSIGGDSGEPLDDVVALCMVEHLQKQLISNHSSPMIHKNARALTNRIVATRSELEFQNCSTLLDISRSDWATNQLAAIALLQGKDISQLLELYLEKRFEHVTHLIEDSATILNIVDEMKKTLAVVEELFVHGELIHAIHSVCNGQYKCELIREMCADQAYSFEKTINEDMDRVWRHLREKLSGRGAGTLPSQLVGEKCAAWIEKTCAVTHKLVAEVCEYFDNLDQIIDLLQAITASLKQDWPRIGSNRSVYDKLLQTAVVDKAKILLIQMIESIELFAKKRFESTSDGPQTAIFDERTYHPDSQSHIGISTQLYNCVKTLWESLEQTNEKCAQFETICTPMADMATSNALKETMATNVLQLLLRLCELHSDKQEGSARFLARARLALALVHSESTLICKLLDKDSQRITSLNQRLHSIIEKNLG	not soluble
KMNRKPTTKIISICLKKATGHVAEALGVEKATEVIVIERLRSLDNMPAIFEIDYFRKEDQFMLDLELTDTSLLDILRQYRGVIASYFDNIIEIALADEKLAEALAISEEEALVKINQTVVDNDNQILYFNEQYILSESYKVAIRSYNK	soluble
MSLYPLVLDLAATGVPVAVTCRELGFTKQGFYKWCAHPVSARDWDEAHLINAAYDVHTDDPEFGHRFIADELHAAGLQTSERRVWRLCSQQQLFSHTIKRARKHGKKPGPPVCDDLVERDFTAKAINELWLTDVTEHHTSEGKLYMCAVKDVFSNRIVGYAIDSRMKSRLAVAAIDDAVARRGGSGMIAGCVVHSDRGSQFRSRKFQQALRHYGLVGSMGRVGAAGDNAAMESFFAVLQKNVLDRGRWDTRARLRTAIVHWVERTYHRKRRQRRLGKLTPVEYELVHQKAVALAAEGHHHHHH	not soluble
MYYLELALGTQEMEAIVGKVTEVNKDTFWPIVKAAGDKPVVLDMFTQWCGPCKAMAPKYEKLAEEYLDVIFLKLDCNQENKTLAKELGIRVVPTFKILKENSVVGEVTGAKYDKLLEAIQAARS	soluble
SKNGLKKRKLTNPVQLDDFDGYIKDMAKDSDYKFSLQFEELKLIGLDIPHFAADLPMNRCKNRYTNILPYDFSRVRLVSMNEEEGSDYINANYIPGYNSPQEYIATQGPLPETRNDFWKMVLQQKSQIIVMLTQCNEKRRVKCDHYWPFTEDPIAYGDITVEMLSEEEHTDWVYRNFRISYADEVQDVMHFNYTAWPDHGVPTANAAESILQFVQMVRQKSVKSKGPMIIHCSAGVGRTGTFIALDWLLQHIRDHEFVDILGLVSDMRSYRMSMVQTEEQYIFIHQCVQLMWQKKKQQFCISDVIYENVSKS	soluble
MGSDKIHHHHHHMTQKTLPPLNWLRAFEVSARYLNFTHAAEELHLTQGAVSQQIRHLESQLGVALFKRLPRGLGLTEEGQSYLPVVQDAISRLAVGTNEIFGQRQRRPLKVRGSLSFLHFWLAPRLADFRRSHPQVDIRYISNLWVKELDAEDDLEIRWGSGQWAGVEAQRLTRDMLVPVCAPALLAGCPLREPRDLARVPLLHVLGYEEGWGYWLERVGADQVDSSSGLQFDTLVSTLRMAELGLGVALARSSLVEDLLQEGRLVAPFAQRIEASESFFLVRGLGEALSPDAQAFSHWLVAMAHR	not soluble
GSESGLRYAYTLVVDGTANTARCFGTGHVDGEAFVGYSNNKTHGIGRWVNASHVEEENKEFVRQCKELQAELDKMQNNSAVIGVKTVQLDVGCTSKIEKHYAYDGNETEDDTATSASERARDCQKKLTEYRKLVLASAVSPQLEVERRSSGREGGMRLRCFARDYYPADLEIRWWKDDGGGGALPQTSKQHHDPLPSGQGLYQKHIDVYVDGGLEHVYSCRVKGIATGLELQIVRWKG	soluble
MRKAERVRKTNETDIELAFTIDGGGQADIKTDVPFMTHMLDLFTKHGQFDLSINAKGDVDIDDHHTTEDIGICLGQALLEALGDKKGIKRYGSAFVPMDEALAQVVIDLSNRPHLEMRADFPAAKVGTFDTELVHEFLWKLALEARMNLHVIVHYGTNTHHMIEAVFKALGRALDEATTIDPRVKGIPSTKGMLLEHHHHHH	not soluble
MKYIINHSNDTAFNIALEEYAFKHLLDEDQIFLLWINKPSIIVGRHQNTIEEINRDYVRENGIEVVRRISGGGAVYHDLNNLNYTIISKEDENKAFDFKSFSTPVINTLAQLGVKAEFTGRNDLEIDGKKFCGNAQAYINGRIMHHGCLLFDVDLSVLANALKVSKDKFESKGVKSVRARVTNIINELPKKITVEKFRDLLLEYMKKEYPEMTEYVFSEEELAEINRIKDTKFGTWDWNYGKSPEFNVRRGIKFTSGKVEVFANVTESKIQDIKIYGDFFGIEDVAAVEDVLRGVKYEREDVLKALKTIDITRYFAGISREEIAEAVVG	not soluble
MLRLIPNKGLKKTINTLTVAEKARINHQDIEELLLRYQRSCPEDAARNITEVTNPNQEKHEGLRVFVIQTWMALMVANSYGLETYQTLKTFMDRQGYKTQPDSTYMATEQKD	not soluble
